± gives the uncertainty stated by the source.
B1: Gamma-crystallin C, residues 4 to 79; numbered along this chain, P07315 (parent)
chain: ITFYEDRAFQGRSYETTTDCPNLQPYFSRCNSIRVESGCWMLYERPNYQGQQYLLRRGEYPDYQQWMGLSDSIRSC

Variants of: B1
Test: abundance fitness (aPCA) (normalised: wild type 0, dead -1); higher = more abundant; growth selection in yeast, the domain comes from the species named
Conditions: Homo sapiens

Row | Variant | abundance fitness
1 | ITFYEDRAFSGRSYETTTDCPNLQPYFSRCNSIRVESGCWMLYERPNYQGQQYLLRRGEYPDYQQWMGLSDSIRSC [Q10S] | -0.066 ± 0.066
2 | ITFYEDRAFAGRSYETTTDCPNLQPYFSRCNSIRVESGCWMLYERPNYQGQQYLLRRGEYPDYQQWMGLSDSIRSC [Q10A] | 0.065 ± 0.076
3 | ITFYEDRAFPGRSYETTTDCPNLQPYFSRCNSIRVESGCWMLYERPNYQGQQYLLRRGEYPDYQQWMGLSDSIRSC [Q10P] | -1.2 ± 0.42
4 | ITFYEDRAQQGRSYETTTDCPNLQPYFSRCNSIRVESGCWMLYERPNYQGQQYLLRRGEYPDYQQWMGLSDSIRSC [F9Q] | -0.207 ± 0.39
5 | ITFYEDRAVQGRSYETTTDCPNLQPYFSRCNSIRVESGCWMLYERPNYQGQQYLLRRGEYPDYQQWMGLSDSIRSC [F9V] | -0.628 ± 0.24
6 | ITFYEDRAFQGRSYETTTDCPNLQPYFSRCNSIRVESGCWMLYERPNYQGQQYLLRRGSYPDYQQWMGLSDSIRSC [E59S] | 0.049 ± 0.1
7 | ITFYEDRAFQGRSYETTTDCPNLQPYFSRCNSIRVESGCWMLYERPNYQGQQYLLRRGVYPDYQQWMGLSDSIRSC [E59V] | -0.053 ± 0.054
8 | ITFYEDRAFQGRSYETTTDCPNLQPYFSRCNSIRVESGCWMLYERPNYQGQQYLLRRGFYPDYQQWMGLSDSIRSC [E59F] | -0.039 ± 0.11
9 | ITFYEDRAFQGRSYETTTDCPNLQPYFSRCNSIRVESGCWMLYERPNYQGQQYLLRRGEYPDYQQWMGVSDSIRSC [L69V] | 0.02 ± 0.058
10 | ITFYEDRAFQGRSYETTTDCPNLQPYFSRCNSIRVESGCWMLYERPNYQGQQYLLRRGEYPDYQQWMGKSDSIRSC [L69K] | -0.104 ± 0.091
11 | ITFYEDRAFQGRSYETTTDCPNLQPYFSRCNSIRVEMGCWMLYERPNYQGQQYLLRRGEYPDYQQWMGLSDSIRSC [S37M] | -0.031 ± 0.12
12 | ITFYEDRAFQGRSYETTTDCPNLQPKFSRCNSIRVESGCWMLYERPNYQGQQYLLRRGEYPDYQQWMGLSDSIRSC [Y26K] | -0.047 ± 0.13
13 | ITFYEDRAFQGRSYETTTDCPNLQPIFSRCNSIRVESGCWMLYERPNYQGQQYLLRRGEYPDYQQWMGLSDSIRSC [Y26I] | 0.237 ± 0.19
14 | ITFYEDRAFQGRSYETTTDCPNLSPYFSRCNSIRVESGCWMLYERPNYQGQQYLLRRGEYPDYQQWMGLSDSIRSC [Q24S] | 0 ± 0.11
15 | ITFYEDRAFQGRSYETTTDCPNLCPYFSRCNSIRVESGCWMLYERPNYQGQQYLLRRGEYPDYQQWMGLSDSIRSC [Q24C] | -0.131 ± 0.21
16 | ITFYEDRAFQGRSYETTTDCPNLLPYFSRCNSIRVESGCWMLYERPNYQGQQYLLRRGEYPDYQQWMGLSDSIRSC [Q24L] | 0.116 ± 0.12
17 | ITFYEDRAFQGRSYETTTDCPNLQPYFSRCNSIRVESGCWMLYERPNYQGCQYLLRRGEYPDYQQWMGLSDSIRSC [Q51C] | -0.19 ± 0.33
18 | ITFYEDRAFQGRSYETTTDCPNLQPYFSRCNSIRVESGCWMLYERPNYQGIQYLLRRGEYPDYQQWMGLSDSIRSC [Q51I] | 0.078 ± 0.34

Row | Variant | abundance fitness
19 | ITFYEDRAFQGRSYETTTDCPNLQPYFSRCNSIRVESGCWMLYERPVYQGQQYLLRRGEYPDYQQWMGLSDSIRSC [N47V] | -0.181 ± 0.13
20 | ITFYEDRAFQGRSYETTTDCPNLQPYFSRCNSIRVESGCWMLYERPNYQGQQYLLRRGEYPDYQQWMGLNDSIRSC [S70N] | -0.021 ± 0.11
21 | ITFYEDRAFQGRSYETTTDCPNLQPYFSRCNSIRVESGCWMLYERPNYQGQQYLLRRGEYPDYQQWMGLDDSIRSC [S70D] | -0.074 ± 0.12
22 | ITFYEDRAFQGRSYETTTDCPNLQPYFSRCNWIRVESGCWMLYERPNYQGQQYLLRRGEYPDYQQWMGLSDSIRSC [S32W] | -0.889 ± 0.26
23 | ITFYEDRAFQGRSYETTTDCPNLQPYFSRCNGIRVESGCWMLYERPNYQGQQYLLRRGEYPDYQQWMGLSDSIRSC [S32G] | -0.424 ± 0.083
24 | ITFYEDRAFQGRSYETTTDCPNLQPYFSRCNSIRVESGCWKLYERPNYQGQQYLLRRGEYPDYQQWMGLSDSIRSC [M41K] | -0.056 ± 0.14
25 | ITFYEDRAFQGRSYETTTDCPNLQPYFSRCNSIRVESGCWMLYERPNYQGQQYLLRRGEYPDYQQWQGLSDSIRSC [M67Q] | -0.042 ± 0.15
26 | ITFYEDRAFQGRSYETTTDCPNLQPYFSRCNSIRVESGCWMLYERPNYQGQQYLLRRGEYPGYQQWMGLSDSIRSC [D62G] | -0.013 ± 0.04
27 | ITFYEDRAFQGRSYETTTDCPNLQPYFSRCNSIRVESGCWMLYERPNSQGQQYLLRRGEYPDYQQWMGLSDSIRSC [Y48S] | -0.324 ± 0.12
28 | ITFYEHRAFQGRSYETTTDCPNLQPYFSRCNSIRVESGCWMLYERPNYQGQQYLLRRGEYPDYQQWMGLSDSIRSC [D6H] | 0.115 ± 0.23
29 | ITFYEDRAFQGRSYETTTDCPNLQPYFSRCNSIRVESGFWMLYERPNYQGQQYLLRRGEYPDYQQWMGLSDSIRSC [C39F] | -0.036 ± 0.11
30 | ITFYEDRAFQHRSYETTTDCPNLQPYFSRCNSIRVESGCWMLYERPNYQGQQYLLRRGEYPDYQQWMGLSDSIRSC [G11H] | -0.49 ± 0.24
31 | ITFYEDRAFQNRSYETTTDCPNLQPYFSRCNSIRVESGCWMLYERPNYQGQQYLLRRGEYPDYQQWMGLSDSIRSC [G11N] | 0.162 ± 0.49
32 | ITFYEDRAFQDRSYETTTDCPNLQPYFSRCNSIRVESGCWMLYERPNYQGQQYLLRRGEYPDYQQWMGLSDSIRSC [G11D] | -0.5 ± 0.18
33 | ITFYEDRAFQGRSYETTTDEPNLQPYFSRCNSIRVESGCWMLYERPNYQGQQYLLRRGEYPDYQQWMGLSDSIRSC [C20E] | -0.041 ± 0.11
34 | ITFYEDRAFQGRSYETTTDQPNLQPYFSRCNSIRVESGCWMLYERPNYQGQQYLLRRGEYPDYQQWMGLSDSIRSC [C20Q] | -0.027 ± 0.16
35 | ITFYEDRAFQGRSYETTTDPPNLQPYFSRCNSIRVESGCWMLYERPNYQGQQYLLRRGEYPDYQQWMGLSDSIRSC [C20P] | -0.64 ± 0.13
36 | ITFYEDRAFQGRSYETTTDCPNLQPYFSRCNSCRVESGCWMLYERPNYQGQQYLLRRGEYPDYQQWMGLSDSIRSC [I33C] | 0.074 ± 0.13

Source: the Human Domainome abundance scans (Beltran et al. 2025)
